Measurements reported in patent US20240200091A1, “USE OF PROTOPORPHYRINOGEN OXIDASE” (BEIJING DABEINONG BIOTECHNOLOGY CO., LTD., priority 2021, published 2024).

Columns and labels:
Assay type in all cases: in vivo
[1] = test system: Arabidopsis thaliana T1 plants; experiment: oxyfluorfen tolerance of transgenic Arabidopsis thaliana T1 plants (spray, grade of pesticide damage); conditions: 7 DAT, number of plants of 24 per genotype, grades
Summary of the method: (§1)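 Read-out: injury grade at 7 DAT from injured vs total leaf area (0 = as water-sprayed; 1 = <10%; 3 = 100%); grades 0–1 were rated highly resistant. Plants were 18-day-old glufosinate-selected PPO-transgenic T1 lines plus controls, n = 24 per genotype. Doses: saflufenacil 25/100, sulfentrazone 450/900, flumioxazin 60/240, oxyfluorfen 180/720 g ai/ha.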

[2] = test system: Arabidopsis thaliana T1 plants; experiment: saflufenacil tolerance of transgenic Arabidopsis thaliana T1 plants (spray, grade of pesticide damage); conditions: 7 DAT, number of plants of 24 per genotype, grades
Summary of the method: as §1

[3] = test system: Arabidopsis thaliana T1 plants; experiment: flumioxazin tolerance of transgenic Arabidopsis thaliana T1 plants (spray, grade of pesticide damage); conditions: 7 DAT, number of plants of 24 per genotype, grades
Summary of the method: as §1

[4] = test system: Arabidopsis thaliana T1 plants; experiment: sulfentrazone tolerance of transgenic Arabidopsis thaliana T1 plants (spray, grade of pesticide damage); conditions: 7 DAT, number of plants of 24 per genotype, grades
Summary of the method: as §1

[5] = test system: transgenic soybean plants; experiment: saflufenacil tolerance of transgenic soybean plants (spray, grade of pesticide damage); conditions: for The grade of pesticide damage/plant: grade 0 / The grade of pesticide damage/plant: grade 1 / The grade of pesticide damage/plant: grade 2 / The grade of pesticide damage/plant: grade 3: 7 DAT, number of plants of 16 per genotype, grades
[6] = test system: transgenic soybean plants; experiment: oxyfluorfen tolerance of transgenic soybean plants (spray, grade of pesticide damage); conditions: for The grade of pesticide damage/plant: grade 0 / The grade of pesticide damage/plant: grade 1 / The grade of pesticide damage/plant: grade 2 / The grade of pesticide damage/plant: grade 3: 7 DAT, number of plants of 16 per genotype, grades; for tolerance to oxyfluorfen: soybean
[7] = test system: transgenic soybean plants; experiment: flumioxazin tolerance of transgenic soybean plants (spray, grade of pesticide damage); conditions: for The grade of pesticide damage/plant: grade 0 / The grade of pesticide damage/plant: grade 1 / The grade of pesticide damage/plant: grade 2 / The grade of pesticide damage/plant: grade 3: 7 DAT, number of plants of 16 per genotype, grades

B1: PPO14A: nucleotide sequence encoding microbial protoporphyrinogen oxidase PPO14 (SEQ ID NO:14), Arabidopsis thaliana/soybean common codon usage bias (nucleic acid)
DNA: ATGTCTAACAAGGCCTTGCTGCTCTATAGTACAAGAGAAGGTCAAACTAAAAAGATTCTTCAGTACATAGACAAAGAGCTTCATGATTACCAATGTGATTATGTCGATCTTCACACAATGCCTATAGAGATTGATTTCTCTGGTTATGATAAAGTTTTGGTAGGGGCGTCCATCCGGTATGGACATTTAAACAAAAAACTTTACAGATTCATCGAGAGGTACAAAGCAGAGTTGAAGGATAATAATGCTGCTTTCTTCTGCGTCAATCTAACCGCAAGGAAAGAACAACAAGGAAAAGATACTCCTGAAGGATCAGCTTATATTCAGACTTTTCTCAAGAAGTCTCCATGGCAGCCAGCATTGATAGGTGTTTTTGCTGGAGCTTTACGTTACCCGAAGTATAGATGGTTTGACAAGATGATGATTCGACTAATCATGACTATGACGGGCGGTGAAACCGACACATCAAAGGAAGTGGAGTATACAAATTGGAAGAAAGTGAGCCTCTTTGTTGAAAACTGGCAAAAGCAGTGA
modifications: The nucleotide sequence of PPO14A
- The grade of pesticide damage/plant: grade 0 ([1]; oxyfluorfen 180 g ai/ha (1×)): 24 plant
- The grade of pesticide damage/plant: grade 1 ([1]; oxyfluorfen 180 g ai/ha (1×)): 0 plant
- The grade of pesticide damage/plant: grade 2 ([1]; oxyfluorfen 180 g ai/ha (1×)): 0 plant
- The grade of pesticide damage/plant: grade 3 ([1]; oxyfluorfen 180 g ai/ha (1×)): 0 plant
- The grade of pesticide damage/plant: grade 0 ([1]; oxyfluorfen 720 g ai/ha (4×)): 20 plant
- The grade of pesticide damage/plant: grade 1 ([1]; oxyfluorfen 720 g ai/ha (4×)): 4 plant
- The grade of pesticide damage/plant: grade 2 ([1]; oxyfluorfen 720 g ai/ha (4×)): 0 plant
- The grade of pesticide damage/plant: grade 3 ([1]; oxyfluorfen 720 g ai/ha (4×)): 0 plant
- The grade of pesticide damage/plant: grade 0 ([2]; saflufenacil 25 g ai/ha (1×)): 24 plant
- The grade of pesticide damage/plant: grade 1 ([2]; saflufenacil 25 g ai/ha (1×)): 0 plant
- The grade of pesticide damage/plant: grade 2 ([2]; saflufenacil 25 g ai/ha (1×)): 0 plant
- The grade of pesticide damage/plant: grade 3 ([2]; saflufenacil 25 g ai/ha (1×)): 0 plant
- The grade of pesticide damage/plant: grade 0 ([2]; saflufenacil 100 g ai/ha (4×)): 0 plant
- The grade of pesticide damage/plant: grade 1 ([2]; saflufenacil 100 g ai/ha (4×)): 24 plant
- The grade of pesticide damage/plant: grade 2 ([2]; saflufenacil 100 g ai/ha (4×)): 0 plant
- The grade of pesticide damage/plant: grade 3 ([2]; saflufenacil 100 g ai/ha (4×)): 0 plant
- The grade of pesticide damage/plant: grade 0 ([3]; flumioxazin 60 g ai/ha (1×)): 24 plant
- The grade of pesticide damage/plant: grade 1 ([3]; flumioxazin 60 g ai/ha (1×)): 0 plant
- The grade of pesticide damage/plant: grade 2 ([3]; flumioxazin 60 g ai/ha (1×)): 0 plant
- The grade of pesticide damage/plant: grade 3 ([3]; flumioxazin 60 g ai/ha (1×)): 0 plant
- The grade of pesticide damage/plant: grade 0 ([3]; flumioxazin 240 g ai/ha (4×)): 19 plant
- The grade of pesticide damage/plant: grade 1 ([3]; flumioxazin 240 g ai/ha (4×)): 5 plant
- The grade of pesticide damage/plant: grade 2 ([3]; flumioxazin 240 g ai/ha (4×)): 0 plant
- The grade of pesticide damage/plant: grade 3 ([3]; flumioxazin 240 g ai/ha (4×)): 0 plant
- The grade of pesticide: grade 0 ([4]; sulfentrazone 450 g ai/ha (1×)): 24
- The grade of pesticide: grade 1 ([4]; sulfentrazone 450 g ai/ha (1×)): 0
- The grade of pesticide: grade 2 ([4]; sulfentrazone 450 g ai/ha (1×)): 0
- The grade of pesticide: grade 3 ([4]; sulfentrazone 450 g ai/ha (1×)): 0
- The grade of pesticide: grade 0 ([4]; sulfentrazone 900 g ai/ha (2×)): 19
- The grade of pesticide: grade 1 ([4]; sulfentrazone 900 g ai/ha (2×)): 5
- The grade of pesticide: grade 2 ([4]; sulfentrazone 900 g ai/ha (2×)): 0
- The grade of pesticide: grade 3 ([4]; sulfentrazone 900 g ai/ha (2×)): 0

B2: PPO-ECA: nucleotide sequence encoding Escherichia coli protoporphyrinogen oxidase PPO-EC (SEQ ID NO:43), Arabidopsis thaliana/soybean common codon usage bias (nucleic acid)
DNA: ATGAAAACACTTATCTTGTTCTCAACTAGAGATGGACAGACAAGAGAGATTGCTTCTTACTTGGCTTCAGAACTTAAGGAGTTGGGTATTCAAGCTGATGTTGCTAATGTTCATAGAATTGAAGAGCCTCAGTGGGAAAACTATGATAGAGTTGTTATTGGAGCTTCTATTAGATATGGTCATTACCATTCAGCTTTTCAAGAGTTCGTTAAGAAACATGCTACTAGACTTAACTCTATGCCATCAGCTTTTTACTCTGTTAACTTGGTTGCTAGAAAGCCTGAGAAAAGAACTCCACAAACAAACTCTTACGCTAGAAAGTTCCTTATGAACTCACAGTGGAGACCTGATAGATGCGCTGTTATTGCTGGTGCTCTTAGATATCCAAGATACAGATGGTACGATAGATTCATGATCAAGTTGATTATGAAAATGTCTGGAGGTGAAACTGATACAAGAAAGGAGGTTGTTTACACAGATTGGGAACAGGTTGCTAATTTCGCTAGAGAGATTGCTCATCTTACTGATAAGCCAACATTGAAATGA
modifications: The nucleotide sequence of PPO-ECA
- The grade of pesticide damage/plant: grade 0 ([5]; saflufenacil 50 g ai/ha (2×)): 9 plant
- The grade of pesticide damage/plant: grade 1 ([5]; saflufenacil 50 g ai/ha (2×)): 7 plant
- The grade of pesticide damage/plant: grade 2 ([5]; saflufenacil 50 g ai/ha (2×)): 0 plant
- The grade of pesticide damage/plant: grade 3 ([5]; saflufenacil 50 g ai/ha (2×)): 0 plant
- The grade of pesticide damage/plant: grade 0 ([5]; saflufenacil 100 g ai/ha (4×)): 8 plant
- The grade of pesticide damage/plant: grade 1 ([5]; saflufenacil 100 g ai/ha (4×)): 3 plant
- The grade of pesticide damage/plant: grade 2 ([5]; saflufenacil 100 g ai/ha (4×)): 5 plant
- The grade of pesticide damage/plant: grade 3 ([5]; saflufenacil 100 g ai/ha (4×)): 0 plant
- tolerance to saflufenacil ([5]; soybean, saflufenacil, compared with the control vector and CK): different extents of tolerance
- The grade of pesticide damage/plant: grade 0 ([6]; oxyfluorfen 360 g ai/ha (2×)): 16 plant
- The grade of pesticide damage/plant: grade 1 ([6]; oxyfluorfen 360 g ai/ha (2×)): 0 plant
- The grade of pesticide damage/plant: grade 2 ([6]; oxyfluorfen 360 g ai/ha (2×)): 0 plant
- The grade of pesticide damage/plant: grade 3 ([6]; oxyfluorfen 360 g ai/ha (2×)): 0 plant
- The grade of pesticide damage/plant: grade 0 ([6]; oxyfluorfen 720 g ai/ha (4×)): 13 plant
- The grade of pesticide damage/plant: grade 1 ([6]; oxyfluorfen 720 g ai/ha (4×)): 3 plant
- The grade of pesticide damage/plant: grade 2 ([6]; oxyfluorfen 720 g ai/ha (4×)): 0 plant
- The grade of pesticide damage/plant: grade 3 ([6]; oxyfluorfen 720 g ai/ha (4×)): 0 plant
- tolerance to oxyfluorfen ([6]; oxyfluorfen at four-fold field concentration (720 g ai/ha)): high-resistant tolerance
- tolerance to oxyfluorfen ([6]; oxyfluorfen at two-fold field concentration (360 g ai/ha)): high-resistant tolerance
- The grade of pesticide damage/plant: grade 0 ([7]; flumioxazin 120 g ai/ha (2×)): 16 plant
- The grade of pesticide damage/plant: grade 1 ([7]; flumioxazin 120 g ai/ha (2×)): 0 plant
- The grade of pesticide damage/plant: grade 2 ([7]; flumioxazin 120 g ai/ha (2×)): 0 plant
- The grade of pesticide damage/plant: grade 3 ([7]; flumioxazin 120 g ai/ha (2×)): 0 plant
- The grade of pesticide damage/plant: grade 0 ([7]; flumioxazin 240 g ai/ha (4×)): 15 plant
- The grade of pesticide damage/plant: grade 1 ([7]; flumioxazin 240 g ai/ha (4×)): 1 plant
- The grade of pesticide damage/plant: grade 2 ([7]; flumioxazin 240 g ai/ha (4×)): 0 plant
- The grade of pesticide damage/plant: grade 3 ([7]; flumioxazin 240 g ai/ha (4×)): 0 plant
- tolerance to flumioxazin ([7]; soybean, flumioxazin at different concentrations (120 and 240 g ai/ha)): high-resistant tolerance
